We go through two molecules from patent US8053627B2, “Methods for treating demyelination disorders” (University of Chicago, priority 2005, dated 2011).

In test [1] the test system is Hippocampal organotypic cultures. The test is described as follows: Hippocampal organotypic cultures (HOC), in vitro model of myelination, MBP Western blot. The class given is cell-based. The following applies: 7 days; for reduction of MBP expression elicited by IFN-γ exposure: SAL at various concentrations combined with 100 U/ml IFN-γ. The method, then:
HOCs, were prepared and maintained as described previously (Kunkler and Kraig (1997) J Cereb Blood Flow Metab. 17:2643), and were maintained in vitro for 7 days before use. SAL at various concentrations was combined with 100 U/ml IFN-γ and added to the HOC cultures for 7 days. […] After 7 days of 100 U/ml IFN-γ exposure, the levels of MBP decreased approximately 80% in the HOCs (FIG. 29).

In the next test the test system is cells. The following applies: Boyce, et al. (2005); cited from earlier work.
The target in a further test is PP1-GADD34 phosphatase (Homo sapiens, UniProt O75807). The following applies: Boyce, et al. (2005); cited from earlier work.
PP1-GADD34 phosphatase, sequence (O75807 whole entry): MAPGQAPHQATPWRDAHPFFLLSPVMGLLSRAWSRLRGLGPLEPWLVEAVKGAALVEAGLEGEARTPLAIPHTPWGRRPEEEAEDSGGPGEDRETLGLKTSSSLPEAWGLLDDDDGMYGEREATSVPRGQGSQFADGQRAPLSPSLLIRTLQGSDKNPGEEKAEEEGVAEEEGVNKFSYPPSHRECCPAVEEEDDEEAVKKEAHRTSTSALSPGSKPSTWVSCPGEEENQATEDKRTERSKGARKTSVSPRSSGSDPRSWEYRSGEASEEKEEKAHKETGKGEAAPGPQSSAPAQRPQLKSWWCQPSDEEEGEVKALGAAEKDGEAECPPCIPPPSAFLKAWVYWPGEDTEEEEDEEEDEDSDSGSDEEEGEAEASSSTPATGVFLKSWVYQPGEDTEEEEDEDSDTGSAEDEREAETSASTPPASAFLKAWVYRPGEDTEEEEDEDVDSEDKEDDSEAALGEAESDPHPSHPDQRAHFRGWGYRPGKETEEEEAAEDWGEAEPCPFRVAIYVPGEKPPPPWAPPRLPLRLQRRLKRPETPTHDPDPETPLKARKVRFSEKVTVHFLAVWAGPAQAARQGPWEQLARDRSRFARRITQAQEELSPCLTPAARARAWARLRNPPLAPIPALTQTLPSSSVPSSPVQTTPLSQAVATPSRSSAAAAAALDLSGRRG
Test [2] relates to oligodendrocytes and myelin. The test is described as follows: IFN-γ-overexpressing mice crossed to PLP/SOCS1 mice, clinical and histological evaluation at postnatal day 21. The class given is in vivo. The following applies: for Incidence of tremor: ten mice per group; for oligodendrocyte density: corpus callosum, postnatal day 21. The method, then:
IFN-γ-overexpressing mice were crossed to the PLP/SOCS1 mice in double-transgenic, (MBP/IFN-γ×PLP/SOCS1) and triple-transgenic (GFAP/tTA×TRE/IFN-γ×PLP/SOCS1) mating systems. MBP/IFN-γ×PLP/SOCS1 (172×PLP/SOCS1) mating was performed according to a standard mating protocol. The GFAP/tTA×TRE/IFN-γ×PLP/SOCS1 matings were performed in a 2-step mating process: GFAP/tTA mice were initially crossed to PLP/SOCS1 mice, and double-positive (184×PLP/SOCS1) offspring were then crossed to the TRE/IFN-γ lines 110 and 67, separately. This second mating step was performed according to the previously described “tet-off” protocol. Doxycycline 0.05 mg/ml (Sigma-Aldich) was added to the water of impregnated female mice until embryonic day 14, after which the animals were switched back to normal water, thereby allowing initiation of IFN-γ transcription, which peaks during the postnatal period (Lin et al., 2005).
The litters of the mating systems (F1 generation) were examined daily and sacrificed at postnatal day 21. Clinical evaluation included behavioral observation and challenged ladder walking to elicit tremor. Histological examination included quantitation of the number and density of oligodendrocytes and examination of the myelination patterns. Brain tissue was simultaneously obtained from each animal at the time of sacrifice to verify and measure the expression of IFN-γ and Flag-SOCS1 (see below). The clinical and histological findings were subsequently stratified according to genotype. All animal procedures were conducted in compliance with the National Institutes of Health Guide for Care and Use of Laboratory Animals and were approved by the Institutional Animal Care and Use Committee at The University of Chicago.
Oligodendrocyte cell density was assessed digitally using Axiovision software, at postnatal day 21, as previously described (Lin et al., 2005). The brains were sectioned sagittally through the corpus callosum dividing the brain in two symmetrical halves. Ten frozen sections from each half were prepared at 7 μm thickness, and numbered in the sequence of their preparation. The brains of three animals per study group were prepared in this fashion. Following the CC1 immunostaining the corresponding area of corpus callosum of each section was digitally selected and the corresponding total area obtained. CC1 cell counting was performed manually within the selected areas of each section, and the number of CC1 positive cells per square area (mm^2) calculated. The results were presented as mean±SD of CC1 (+) cells/mm^2 with n=3 animals per study group.
Myelination patterns of the examined animals were assessed at postnatal day 21 by calculating the percent unmyelinated axons and ratio of the axon/fiber diameters (G ratio) with Image J software (National Institutes of Health, Bethesda, Md.) as previously described (Lin at al., 2005). The brains were sectioned sagittally through the corpus callosum dividing the brain in two symmetrical halves. Approximately 2 mm^3 samples from the genu and the splenum of both halves of corpus callosum were obtained using a Wild M3C stereotype microscope. The orientation of the specimen in the resin blocks yielding axonal cross-sections (well seen myelin rings) was chosen, and established by toluedine blue staining of a few sample sections. The resin blocks with the chosen orientation were processed for electron microscope examination. Randomly selected areas were examined and ten representative pictures from both genu and splenum corpus callosum were obtained at 12000× magnification. The number of unmyelinated axons was assessed by manual counting of axons that lacked myelin and were encircled solely by their own plasma membrane. All unmyelinated axons present in the representative images were counted, and their percentage calculated by examining a total of five hundred axons per tissue sample. […]

For the molecule `O=C(/C=C/c1ccccc1)NC(NC(=S)Nc1cccc2cccnc12)C(Cl)(Cl)Cl` (centres unmarked) [SAL, salubrinal], the “reduction of MBP expression elicited by IFN-γ exposure” value in test [1] was “markedly attenuated”; in test [1] (listed as Sal), “attenuating effect”. For the same molecule, in test [1] (SAL treatment alone), the MBP expression entry is “did not affect”. Also, the “protection of cells from ER stress and viral infection” value in the test on cells was “protects cells from ER stress and viral infection”. The PP1-GADD34 phosphatase activity entry at PP1-GADD34 phosphatase was “specifically inhibits”.

B1: SOCS1: suppressor of cytokine signaling 1, Flag-tagged, expressed in oligodendrocytes from the PLP/SOCS1 transgene (protein, UniProt O35716 1-212, looked up)
Suppressor of cytokine …: MVARNQVAADNAISPAAEPRRRSEPSSSSSSSSPAAPVRPRPCPAVPAPAPGDTHFRTFRSHSDYRRITRTSALLDACGFYWGPLSVHGAHERLRAEPVGTFLVRDSRQRNCFFALSVKMASGPTSIRVHFQAGRFHLDGSRETFDCLFELLEHYVAAPRRMLGAPLRQRRVRPLQELCRQRIVAAVGRENLARIPLNPVLRDYLSSFPFQI
modifications: FLAG tag
notes: suppressor of cytokine signaling 1, Flag-tagged, expressed in oligodendrocytes from the PLP/SOCS1 transgene
On to B1, for which the Incidence of tremor in test [2] (172 × PLP/SOCS1 littermates), in test [2] (184/67 × PLP/SOCS1 littermates) and in test [2] (184/110 × PLP/SOCS1 littermates) was 0% each time. Also, the oligodendrocyte density in test [2] (184/67 system) is given as 142±5 CC1 (+) cells/mm^2; in test [2] (184/110 system) it was 141±6 CC1 (+) cells/mm^2. For the same molecule, the “MHC class I molecule expression (immunostaining)” value in test [2] (MBP/IFN-γ and MBP/IFN-γ×PLP/SOCS1 brains) was “did not express detectable levels”.
